From the supplement of paper PMC10567573 come the findings set out here.

± gives the standard deviation.

This data set is described as follows: protein stability index of a GFP-peptide fusion (GPS, HEK-293T) (PSI 1-6); higher = more stable. As to conditions: c terminus: a fixed tail appended.
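Note: 24-mer peptide tiles fused after GFP, lentivirally expressed, FACS-sorted into six equal bins by GFP/DsRed ratio, decoded by Illumina sequencing, PSI is the read-weighted mean bin number.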

Take EKQMEEKRRANQKSSAQGPIPWFL [PPEF2]: the protein stability index came out at 3.71 ± 0.17 (treatment: DMSO) and 3.68 ± 0.32 (treatment: MLN4924 1 uM, 8 h).

For the sequence ELAYLRKNHEEEMLALRGQTGGDV [KRT16], the protein stability index is 4.26 ± 0.28 (treatment: DMSO) and 4.41 ± 0.17 (treatment: MLN4924 1 uM, 8 h).

In the case of ELLALETALGGQCVDRQEVAEITK [TCAP], the protein stability index is, setting by setting: (treatment: DMSO) 4.15 ± 0.26; (treatment: MLN4924 1 uM, 8 h) 4.5 ± 0.24.

For ELLCCTNVSTKEGIHLALVELLKN [INTS4], the protein stability index stood at 2.19 ± 0.74 (treatment: DMSO) and 2.4 ± 0.41 (treatment: MLN4924 1 uM, 8 h).

As to ELLTGQPLWPGKSDVDQLYLIIRT [CDKL4], the protein stability index runs as follows: (treatment: DMSO) 2.31 ± 0.69; (treatment: MLN4924 1 uM, 8 h) 2.24 ± 0.43.

As to EMFLYFEDHGLVTCSADHLIILWK [WDR41], the protein stability index stood at 2.76 ± 0.4 (treatment: DMSO) and 2.68 ± 0.67 (treatment: MLN4924 1 uM, 8 h).

Consider EPPQDSHSRKTVLIKTIETRNGEV [PRPH], for which the protein stability index by setting is: (treatment: DMSO) 4.67 ± 0.28; (treatment: MLN4924 1 uM, 8 h) 4.79 ± 0.4.

EPSSDPSLLGEPCAGPGFTHNIAH [SPAG8]: the protein stability index was 4.65 ± 0.074 (treatment: DMSO) and 4.52 ± 0.22 (treatment: MLN4924 1 uM, 8 h).

Regarding EPSSSKDSDENSKPSVDTEGPALV [MIA2], the protein stability index reads like this: (treatment: DMSO) 5.53 ± 0.45; (treatment: MLN4924 1 uM, 8 h) 5.51 ± 0.25.

Regarding EQHNWNIEAAVQDRLNEQEGVPSV [FAF2], the protein stability index is, setting by setting: (treatment: DMSO) 5.05 ± 0.22; (treatment: MLN4924 1 uM, 8 h) 5.17 ± 0.32.

As to EQQRCLLLARLRELEQQIWKERDE [TRIM15], the protein stability index was determined as 3.03 ± 0.28 (treatment: DMSO) and 3.29 ± 0.36 (treatment: MLN4924 1 uM, 8 h).

Turning to ERAIETLIKNFHQYSVEGGKETLT [S100A14], the protein stability index turned out to be 3.53 ± 0.23 (treatment: DMSO) and 3.41 ± 0.22 (treatment: MLN4924 1 uM, 8 h).

Turning to ERGVEGDFLIRDSESSPSDFSVSL [NCK2], the protein stability index by setting is: (treatment: DMSO) 4.37 ± 0.2; (treatment: MLN4924 1 uM, 8 h) 4.26 ± 0.25.

Turning to ERMTTREKKVLEAGMGKVTSASFG [HDAC6], the protein stability index came out at 4.1 ± 0.14 (treatment: DMSO) and 4.19 ± 0.14 (treatment: MLN4924 1 uM, 8 h).

Regarding ERQDMYQCLVEGCTEKFKTSRDRK [ZNF511], the protein stability index reads like this: (treatment: DMSO) 4.09 ± 0.48; (treatment: MLN4924 1 uM, 8 h) 4.29 ± 0.25.

Regarding ERYEIDSLIGKGSFGQVVKAYDHQ [DYRK1B], the protein stability index (treatment: DMSO) turned out to be 3.92 ± 0.21 and the protein stability index (treatment: MLN4924 1 uM, 8 h) is 4.02 ± 0.17.

ERYFIPVSCFLTFNIFDWLGRSLT [SLC29A1]: the protein stability index reads like this: (treatment: DMSO) 2.77 ± 0.26; (treatment: MLN4924 1 uM, 8 h) 3.08 ± 0.46.

Take ETCSCGYYLHPLPAGAEYCSSARH [SCNN1D]: the protein stability index is, setting by setting: (treatment: DMSO) 3.52 ± 0.36; (treatment: MLN4924 1 uM, 8 h) 3.63 ± 0.43.

As to EVSCQCQLHPPRWYSRLQACQWGG, the protein stability index runs as follows: (treatment: DMSO) 2.17 ± 0.13; (treatment: MLN4924 1 uM, 8 h) 2.29 ± 0.4.

In the case of EVTDKEQEFAARAAKQLEYQQLED [EPB41L3], the protein stability index is, setting by setting: (treatment: DMSO) 5.65 ± 0.27; (treatment: MLN4924 1 uM, 8 h) 5.62 ± 0.33.

Turning to EVYQEVQAMFDTLGIPKSTTSDIP [FAM98B], the protein stability index reads like this: (treatment: DMSO) 3.09 ± 0.31; (treatment: MLN4924 1 uM, 8 h) 3.5 ± 0.49.

With EWAALGNMSKEDAMVEFVKLLNRC [ACBD3], the protein stability index by setting is: (treatment: DMSO) 2.48 ± 0.22; (treatment: MLN4924 1 uM, 8 h) 2.59 ± 0.3.

As for FDFDDDGTLNREDLSRLVNCLTGE [CIB1], the protein stability index amounted to 4.21 ± 0.21 (treatment: DMSO) and 4.29 ± 0.34 (treatment: MLN4924 1 uM, 8 h).

The sequence FDRVDENNPEYLRERNMAPDLRQD [ADD1] had a protein stability index (treatment: DMSO) of 5.1 ± 0.064 and a protein stability index (treatment: MLN4924 1 uM, 8 h) of 5.32 ± 0.25.

Regarding FDTLATVGTGTFGRVHLVKEKTAK [PRKX], the protein stability index is, setting by setting: (treatment: DMSO) 4.66 ± 0.22; (treatment: MLN4924 1 uM, 8 h) 4.54 ± 0.41.

With FEFEVRVCDSCHEAITDEERAPTA [WDFY2], the protein stability index is, setting by setting: (treatment: DMSO) 3.48 ± 0.33; (treatment: MLN4924 1 uM, 8 h) 3.57 ± 0.086.

With FEKWEQETAAGKGKGEARARLKRS [SMTNL2], the protein stability index is, setting by setting: (treatment: DMSO) 4.87 ± 0.15; (treatment: MLN4924 1 uM, 8 h) 5.07 ± 0.21.

As to FERLCLTWMFFFMMCVAERTYKQR [PHTF1], the protein stability index (treatment: DMSO) was found to be 2.82 ± 0.54 and the protein stability index (treatment: MLN4924 1 uM, 8 h) stood at 3.3 ± 0.49.

Take FEYSTIKCRDLSALMHELSNDGAR [BTBD10]: the protein stability index runs as follows: (treatment: DMSO) 2.53 ± 0.31; (treatment: MLN4924 1 uM, 8 h) 2.57 ± 0.41.

As to FFGMAFNFIVNDSRKKPIWNVLMW [SOAT1], the protein stability index amounted to 2.6 ± 0.55 (treatment: DMSO) and 2.19 ± 0.73 (treatment: MLN4924 1 uM, 8 h).

As for FFLAILSCSEICYTFIIVPKMLVD [OR10K2], the protein stability index came to 3.42 ± 0.36 (treatment: DMSO) and 2.89 ± 0.28 (treatment: MLN4924 1 uM, 8 h).

The sequence FFNTLHVGGTIRTCQKFLIQYNRR [POP5] displayed a protein stability index (treatment: DMSO) of 2.02 ± 0.19 and a protein stability index (treatment: MLN4924 1 uM, 8 h) of 2.06 ± 0.23.

The sequence FGGPFVESSTREVVFPYTSKSCMR [RHOBTB2] registered a protein stability index (treatment: DMSO) of 2.54 ± 0.8 and a protein stability index (treatment: MLN4924 1 uM, 8 h) of 2.98 ± 0.75.

In the case of FIALLILFILSTLVVDYIDEGRLV [SOAT1], the protein stability index by setting is: (treatment: DMSO) 3.18 ± 0.3; (treatment: MLN4924 1 uM, 8 h) 3.26 ± 0.5.

For FIYMVLSLFIALITGAYDTIKHPG [MCOLN1], the protein stability index (treatment: DMSO) was 2.94 ± 0.21 and the protein stability index (treatment: MLN4924 1 uM, 8 h) is 2.85 ± 0.28.

FLDIPRSRLVKYPLLLKEILKHTP [NET1]: the protein stability index was 1.99 ± 0.55 (treatment: DMSO) and 2.34 ± 0.18 (treatment: MLN4924 1 uM, 8 h).
